Source: article PMC10388305, “Synthesis and Evaluation of a Monomethyl Auristatin E—Integrin αvβ6 Binding Peptide–Drug Conjugate for Tumor Targeted Drug Delivery” (Journal of Medicinal Chemistry, 2023)
Read-outs that look alike come from different tables or passages of the source.

Assays:
BxPC-3 (+) cells = test: Cell binding assay, BxPC-3; format: cell-based; conditions: 1 h, 37 °C, γ-counter, n = 3
From the text: (§1) Binding to cells with minimal to no expression of integrin αvβ6 was low at 4.4 ± 0.1% to DX3puro cells and 7.9 ± 0.4% to pancreatic MIA PaCa-2 cells. Binding of [^64Cu]PDC-1 to DX3puroβ6 (+) and BxPC-3 (+) was reduced by adding increasing amounts of DOTA-PDC-1, illustrating that the αvβ6-selective uptake could be blocked (Figure S3). Internalization of [^64Cu]-PDC-1 into cells was high with >50% of the bound radioactivity internalized for all cells expressing the integrin αvβ6. In comparison, cell binding of [^64Cu]2 to DX3puroβ6 (+) cells was 58.8 ± 2.3, and 3.3 ± 0.4% to the DX3puro (−) cells.
(§2) Cell binding and internalization assay. Binding and internalization were determined as previously described. […] The fraction of bound radioactivity was determined with a γ-counter (by measuring cell pellet and combined supernatants). To determine the fraction of internalized radioactivity, the cells were re-pelleted, and re-suspended in acidic wash buffer (0.2 M sodium acetate, 0.5 M sodium chloride, pH = 2.5, 300 μL, 4 °C, 5 min) to release surface bound activity, followed by a wash with PBS (300 μL). The internalized fraction was determined with a γ-counter (cell pellet vs. radioactivity released into supernatant). A Wizard 1470 or Wizard 2 2470 automatic γ-counter (Perkin-Elmer, Waltham, MA) was used to measure radioactivity samples. […]

MIA PaCa-2 (−) cells = test: Cell binding assay, MIA PaCa-2; format: cell-based; conditions: 1 h, 37 °C, γ-counter, n = 3
From the text: as §1, §2

[1] = Serum stability in mouse serum; format: in vitro ADME; conditions: 37 °C, ethanol precipitation, radio RP-HPLC
Method: The serum stability of [^64Cu]PDC-1 was measured in both human and mouse serum at 37 °C at 1, 4, and 24 h.
Mouse serum or human serum (0.5 mL) was combined with an aliquot of [^64Cu]PDC-1 (≤25 μL, 3.9–4.7 MBq) and incubated at 37 °C. At each time point (1, 4, and 24 h), an aliquot (50–200 μL) was taken, proteins precipitated with absolute ethanol and removed by centrifugation at 1500g for 4 min. The ethanol solution was diluted with water (1 mL) and analyzed by RP-HPLC.

DX3puroβ6 (+) cells = test: Cell binding assay, DX3puroβ6; format: cell-based; conditions: 1 h, 37 °C, γ-counter, n = 3
From the text: as §1, §2

[2] = Biodistribution, both tumor models; format: in vivo, mice; conditions: female, athymic nude, mouse, iv, total radioactivity; for tissue uptake: all time points
Method: (§3) Aliquots of the formulated [^64Cu]PDC-1 in isotonic 0.9% saline (4.81–5.74 MBq, 1.7–2.1 μg, 0.26–0.31 nmol, 100 μL, pH 7.2) were injected i.v. as described above. Following the conscious uptake period, the mice were anesthetized (5% isoflurane), euthanized, and dissected (n ≥ 3/model/time point [4, 24, and 48 h]; the 48 h time point also included the imaging animals sacrificed after the PET scans). Tissues were collected, washed, weighed, and radioactivity measured in a γ-counter. Calibrated, decay-corrected radioactivity was expressed as the percentage of injected dose per gram of tissue (% ID/g). Data are reported as mean ± SD. […] For in vivo blocking studies, DOTA-2 (50 mg/kg, 205 nmol, 1.4 mg in 100 μL 0.9% saline) was injected i.v. into two animals/tumor model 10 min prior to [^64Cu]PDC-1. The animals were sacrificed after 4 h, tissues collected, washed, weighed, and radioactivity measured in a γ-counter.

[3] = test system: DX3puroβ6/DX3puro and BxPC-3 xenograft tumor models; test: Biodistribution, both tumor models; format: in vivo, mice; conditions: DOTA-2 (205 nmol) 10 min prior; 4 h p.i.; both models
Method: as §3

For CC[C@H](C)[C@@H]([C@@H](CC(=O)N1CCC[C@H]1[C@H](OC)[C@@H](C)C(=O)N[C@H](C)[C@@H](O)c1ccccc1)OC)N(C)C(=O)[C@@H](NC(=O)[C@H](C(C)C)N(C)C(=O)OCc1ccc(NC(=O)[C@H](CCCNC(N)=O)NC(=O)[C@@H](NC(=O)CCOCCOCCNC(=O)CCN2C(=O)CC(SC[C@H](NC(=O)CN3CCN(CC(=O)O)CCN(CC(=O)O)CCN(CC(=O)O)CC3)C(=O)NCCOCCOCCOCCOCCOCCOCCOCCOCCOCCOCCOCCOCCOCCOCCOCCOCCOCCOCCOCCOCCOCCOCCOCCOCCOCCOCCOCCOCCC(=O)N[C@@H](CC(N)=O)C(=O)N[C@@H](C)C(=O)N[C@H](C(=O)N3CCC[C@H]3C(=O)N[C@@H](CC(N)=O)C(=O)N[C@@H](CC(C)C)C(=O)N[C@@H](CCCNC(=N)N)C(=O)NCC(=O)N[C@@H](CC(=O)O)C(=O)N[C@@H](CC(C)C)C(=O)N[C@@H](CCC(N)=O)C(=O)N[C@H](C(=O)N[C@@H](CC(C)C)C(=O)N[C@@H](C)C(=O)N[C@@H](CCC(N)=O)C(=O)N[C@@H](CCCNC(=N)N)C(=O)N[C@H](C(=O)N[C@@H](C)C(=O)N[C@@H](CCCNC(=N)N)C(=O)N[C@H](C(=O)NCCOCCOCCOCCOCCOCCOCCOCCOCCOCCOCCOCCOCCOCCOCCOCCOCCOCCOCCOCCOCCOCCOCCOCCOCCOCCOCCOCCOCCC(N)=O)[C@@H](C)O)C(C)C)C(C)C)C(C)C)C2=O)C(C)C)cc1)C(C)C (some centres unmarked) [[^64Cu]PDC-1, metal not drawn], which Cell binding (BxPC-3 (+) cells) is on record?
The Cell binding was 62.0 ± 1.0%.

And the Cell binding (MIA PaCa-2 (−) cells)?
Its Cell binding is 7.9 ± 0.4%.

And the remaining at 1 h ([1]; 1 h)?
Its remaining at 1 h is 89%.

What about the remaining at 4 h ([1]; 4 h) of the same compound?
Its remaining at 4 h is 49%.

And the remaining at 24 h ([1]; 24 h)?
The remaining at 24 h was 3%.

And the Cell binding (DX3puroβ6 (+) cells)?
The Cell binding was 67.0 ± 2.3%.

And the excreta dose per gram or mL at 4 h ([2]; faeces, 4 h, read-out: Fecal matter)?
Its excreta dose per gram or mL at 4 h is 12 %ID/g.

What about the excreta dose per gram or mL at 48 h ([2]; faeces, 48 h, read-out: Fecal matter) of the same compound?
Its excreta dose per gram or mL at 48 h is 1.5 %ID/g.

What about the tissue uptake at 4 h ([2]; kidney, 4 h, both models, read-out: Kidney uptake) of the same compound?
Its tissue uptake at 4 h is 50 to 64 %ID/g.

What about the tissue uptake at 48 h ([2]; kidney, 48 h, both models, read-out: Kidney uptake) of the same compound?
Its tissue uptake at 48 h is ≤ 25 %ID/g.

What about the tissue uptake at 4 h ([2]; large intestines, 4 h, read-out: Large intestines uptake) of the same compound?
Its tissue uptake at 4 h is 6 %ID/g.

And the tissue uptake at 48 h ([2]; large intestines, 48 h, read-out: Large intestines uptake)?
The tissue uptake at 48 h was 3 %ID/g.

And the tissue uptake ([2]; muscle, read-out: Muscle uptake)?
The tissue uptake was ≤ 0.9 %ID/g.

And the tissue uptake ([2]; pancreas, read-out: Pancreas uptake)?
The tissue uptake was ≤ 0.5 %ID/g.

What about the tissue uptake at 4 h ([2]; small intestines, 4 h, read-out: Small intestines uptake) of the same compound?
The tissue uptake at 4 h was 4 to 5 %ID/g.

And the tissue uptake at 4 h ([2]; stomach, 4 h, read-out: Stomach uptake)?
The tissue uptake at 4 h was 9 %ID/g.

What about the “Reduction of uptake in the αvβ6 (+) tumors by blocking” value [3] of the same compound?
Its value is 87–91%.
